Assay results published in the DeepSol protein solubility set.

Experiment: soluble on expression in E. coli; label from the status in PepcDB or PDB records

Row | Sequence | soluble on expression in E. coli
1 | MGSDKIHHHHHHMKVLVPATTTNLGAGFDVFGLALDLFNEVEFSFDTKETTIESTGKYASDLKDHNLFFEVLRFFERKTGYRVPPVRIKQTCNIPVSSGLGSSAAVIVAALHIANEGTGRNLSREDLMKLAVELEGHPDNVVPAFTGGLVVCYQNGSHLDFEKFEIDLSLTFLVPNFPVCTNEMRKILPEKVPFEDAVFNIKNSCQFLAKIAAGKIKEALKYVGDRLHQNYRINGNKKMKEFVEAILSKNPEYWFVSGSGPSVCSNINDFEGIPYLKDVLKLRVNNRGMIVSE | not soluble
2 | GPGSMDTRDRPLPRTPPLQTPRGSCHPPLLTVEEDVRRAGQVRQVRPTKELNCRHQTSLQLYREHRRCEAEGFKERRVILRVWVLHGQHAPGGHTRPHPTGAQDRDAQAPQLRRAVESRLSPTHYEAEGDGRLNRRHHTTTACSHQRPHILRHIRRGNKDVAP | not soluble
3 | QVKEVQIRFEKDALHNIMEMQYKNYQLSKENIDMVNQKYHDLKHQINILKTQSYTGKSTNYLEKMEREIRVYETQNKTGNQILDAVLTNKAMICQNKEIELKFIVDGEALSFMDDMDVSALFGNMLDNAIESAEKQQEKQKRLIWLYVTREKQFVRIRTENYCDEKIHFKNGMPVTTKKDRRLHGYGMKSIKSTVEKYHGSVVAAQENNWFELKILLPAGR | not soluble
4 | MGSDKIHHHHHHMSGYKVFIVDDEADIALILKLQLEDAGYRTMRARDGIEALDALERESFDLVLLDIRMPRMDGIEVLERIRDRWPDLVVIMMTAHGSEDIAVEAMKKGAVDYISKPFSSDDMKKRVERAIQFNRTRLENERLQRVLDEERRKMGAILRGMADLLVAVDREGRIITINRAAEERFGIAADGVQNQPVELLLKTDIPGERLPCRVVLATGDPCLDVTYAVQAGGGMIPVLSSATPLKGAGGEMMGCVEIIRDISTLKALEREREDFVSMLSHDLKTPITAVVGSIDLVREGRIGPVNAEQRSYLDSAMESCAEMVDMIDTLLDVHRFEAGRMVMAARLEDLGPLMARTLGRFDSVARRAGIALVLTLPDYPLALSLDRNQFARLMGNLIANAIKFTQEGGEIEVSARLLNDPAELVGRIPRESYPDVPLPPLNPHLLITVRDTGVGIPADSLVSIFDRFVQARNRRLGKSTGTGLGLAFCRKVMDAHHGYIWAESVEGEGSSFNMLFPLTNEAYAATGG | not soluble
5 | MSLANMHQEPDGSWMVEGQTTVRELNRVLKWGLPANGPRTLNGLILEHLESIPEAGTSLLIQGWPVTILQTQDNRVKMARVQPHHKRRRQPRRHEGHHHHHH | soluble
6 | MSKDEILKLGREEFFKSVKMEYRPYFEPYETPESVYPDGSINIDCTCLHSALAHRCGYLIRDALVCFNASKTTPRGLDCEKEFVAHAICTEEANNKS | not soluble
7 | SDRRTRENPERTFDLVLKVKCHASENEDPEVLWKFPEDFGDQEVLQSVPKFCFPFDVERVSQNQVGQHFTFVLTDMESKQRFGFCRLTSGGRICLCILSYLPWFEVYYKLLNTLADYLAKELEEDLNETLKSLYNHPVPKANTPVNLSVNQELFIASEQVLKDDPSLIPHSCFITPDITGLPTIPESRNLTEYFVAVDVNNMLRLYASMLHERRIIITSSKLSTVSPSHLRL | soluble
8 | MSELIIYNGKVYTEDGKIDNGYIHVKDGQIVAIGEVDDKAAIDNDTTNKIQVIDAKGHHVLPGFIDIHIHGGYGQDAMDGSYDGLKYLSENLLSEGTTSYLATTMTQSTDKIDNALTNIAKYEAEQDVHNAAEIVGIHLEGPFISENKVGAQHPQYVVRPFIDKIKHFQETANGLIKIMTFAPEVEGAKEALETYKDDIIFSIGHTVATYEEAVEAVERGAKHVTHLYNAATPFQHREPGVFGAAWLNDALHTEMIVDGTHSHPASVAIAYRMKGNERFYLITDAMRAKGMPEGEYDLGGQKVTVQSQQARLANGALAGSILKMNHGLRNLISFTGDTLDHLWRVTSLNQAIALGIDDRKGSIKVNKDADLVILDDDMNVKSTIKQGKVHTFS | not soluble
9 | MRGSHHHHHHGMASMAVSESQLKKMVSKYKYRDLTVRETVNVITLYKDLKPVLDSYVFNDGSSRELMNLTGTIPVPYRGNTYNIPICLWLLDTYPYNPPICFVKPTSSMTIKTGKHVDANGKIYLPYLHEWKHPQSDLLGLIQVMIVVFGDEPPVFSRP | soluble
10 | GPGSMETTTHVVNPGEEGAYSSITEAINAAVDGDTVLLKPGLYEELPKVFKDITVTAERDASLTESETIVTNGIVIGSNATLKGLQVRGRVDVRKGHAVIEECDIHHGCDGIRVGEAAKLTVRRSRIHHCESGGDGIYFSTGSMGEVEDCDIYECRVNGVHANNARVVIARNRVRDVLFGFYFRGQSSGSVERNSVEHVSKFGIYVTEGSDPVVQGNMVRECGMHCAFVSQGGKGIWVDNSFDGSMHVHSGCDAKLGSNHVVGRLDVDPPT | not soluble
11 | MGSDKIHHHHHHMFVGMDFGTTNSAVALAGADGSVEVLNFAAATGAASTLRSVLAFENARRDAQRRILPLAGHEAIEAYLHGDGDCRFLQSFKSYLTSRSFTSTAIYGAPYSLEELVALIIAQLRRTAEAAGAKVERVVAGRPVRFVAEGGEEEDAYATGRLVEAFAKAGITDVVFEYEPIAAAYYYESTLTRDQTVLVADFGGGTSDFCLIRLGPGRAGLARPEDAIIGTAGVGIAGDAFDRRIVEHGLSGHFGKYTTYVSDGKVLPMPAWVYAKLERWHHVAFLNTPSTMRLLRDLLRQVEHPDQVEQLLALIEHNLGYHLYRAVEQAKRDLSSADETVLRFDHDPVVVERRVTRAEFESWIGKELSAIESCVDGLLDGTGTALAQVDRVFLTGGSSLVPAVRAIFANRFGEDRLSAGGEFISVATGLAQRAREMG | not soluble
12 | MSYVTTKDGVQIFYKDWGPRDAPVIHFHHGWPLSADDWDAQLLFFLAHGYRVVAHDRRGHGRSSQVWDGHDMDHYADDVAAVVAHLGIQGAVHVGHSTGGGEVVRYMARHPEDKVAKAVLIAAVPPLMVQTPGNPGGLPKSVFDGFQAQVASNRAQFYRDVPAGPFYGYNRPGVEASEGIIGNWWRQGMIGSAKAHYDGIVAFSQTDFTEDLKGIQQPVLVMHGDDDQIVPYENSGVLSAKLLPNGALKTYKGYPHGMPTTHADVINADLLAFIRS | soluble
13 | GHHHHHHHHHHGLVPRGSHMYFQKARLIHAELPLLAPFKTSYGELKSKDFYIIELINEEGIHGYGELEAFPLPDYTEETLSSAILIIKEQLLPLLAQRKIRKPEEIQELFSWIQGNEMAKAAVELAVWDAFAKMEKRSLAKMIGATKESIKVGVSIGLQQNVETLLQLVNQYVDQGYERVKLKIAPNKDIQFVEAVRKSFPKLSLMADANSAYNREDFLLLKELDQYDLEMIEQPFGTKDFVDHAWLQKQLKTRICLDENIRSVKDVEQAHSIGSCRAINLKLARVGGMSSALKIAEYCALNEILVWCGGMLEAGVGRAHNIALAARNEFVFPGDISASNRFFAEDIVTPAFELNQGRLKVPTNEGIGVTLDLKVLKKYTKSTEEILLNKGWS | soluble
14 | MTDRGIVFNIQHFSIHDGPGIRTTVFLKGCPLRCPWCANPESQQKAPEQMLTSDGLNTKIVGEEKTVDEVIEEVLKDLDFYEESGGGMTLSGGEIFAQFDFALALLKAAKAAGLHTAIETTAFAKHEQFVTLVDYVDFIYTDLKHYNQLRHQKVTGVRNDLIIKNIHYAFQAGKEIVLRIPVIPQFNDSLDDAKAFSELFNQLEIDQVQLLPFHQFGENKYKLLGREYEMAEVKAYHPEDLADYQAVFLNHNIHCYF | not soluble
15 | MQEKTTESRILDATGRPFKVREAKELQTDDVRLAGLHRTFSNHPSSGLTPASAASILLSAEQGDLIAQCELAEDIEEKDGHLFAELDKRKRALIGVDYYLEPPSNPTPQEKADTEYLQQMLEEGGWIKSLIKSIADAILKGFSMHELAWSRELGEWFVEVPEYRDPSWFMTHPERRNELRLRDSTHEGAELWPFGWIKHIHPAKSGYVSRSGLVRQLIWPFIFKNYSVRDLAEFLEIYGLPLRIGQYPAGASDGEKRALLNAVMSIGHNAGGIMPKGMVMDFHSAATGQADPFELMMTWAEKTMSKVILGGTLTTQADGKSSTNALGNVHNEVRQELRDADLALVAETLTRDLIAPLYALNCKSYRSHRRHPRLVFDTTEAEDLRALAYPLRAFVSMGMQIPQNWLHEKTRIPKPANGEAVLVIQQDDPNATAASQTALAALSAKEGAAKQPDASLNEPSQTALDKALDALTQGQMSEAYMGMVEPLLAQLQSEPEQLRAQLEQNYPNMDTEQLTETLARLMFVAELWGMANA | not soluble
